From patent US20030224453A1, “Structural models for cytoplasmic domains of transmembrane receptors” (priority 1998, published 2003)

Experiments:
platelet αIIbβ3 = experiment: ELISA: inhibition by competitor of anti-mimic antibody reactivity with native platelet αIIbβ3; assay type: binding, human; settings: antibody raised against FIG. 2 heterodimeric mimic; result in words
Description: Antibodies against these heteromeric complexes of the present invention that recognize combinatorial epitopes of the cytoplasmic domains of the complex can be produced in accordance with well known techniques. For example, antibodies were prepared against the heterodimeric complex of FIG. 2. […] Thus, this antibody recognized combinatorial epitopes in the cytoplasmic domain of the native receptor that were mimicked in the model protein.
Antibodies to the model protein depicted in FIG. 2 were raised in 2.5 kg New Zealand white rabbits. One hundred microliters of a water solution containing 1 mg/ml of the model protein was emulsified in 1 ml incomplete Freund's adjuvant and administered subcutaneously to each New Zealand white rabbit. Two additional injections at 2-week intervals were followed by bleeding (approximately 50 mls) at monthly intervals until the rabbits were sacrificed. Blood was permitted to clot at room temperature, and the serum was recovered by centrifugation. Serum was heat inactivated at 56° C. for 30 minutes and stored at −20° C. A pre-immune serum, obtained prior to immunization, was used as a control.
αIIbβ3 was purified by gel filtration in accordance with procedures described by Du et al. (Cell 65:409-416 (1991)) with omission of the heparin and Con A affinity chromatography steps. […] To quantify bound antibody, 50 μl of horseradish peroxidase-conjugated goat anti-rabbit IgG (Biorad) was diluted to a concentration of 1/1000 in wash buffer containing 1 mg/ml bovine serum albumin. […] After four washes, bound antibody was assayed by measuring peroxidase activity with O-phenylenediamine as a substrate and quantifying reaction product by its optical density at 490 nm. Data were expressed as B/B0 where B=A490 in the presence of competitor and B0=A490 in its absence. In some experiments, varying concentrations of αIIb peptides were added to a fixed, saturating, quantity of β3 peptide (20-50 nM). Competition was again expressed as B/BO, however, B0 was the A490 in the presence of the β3 peptide and no added αIIb peptide. […]

[1] = target: T1, integrin β3 cytoplasmic domain (Homo sapiens, UniProt P05106); experiment: Immunochemical ELISA: αIIb peptides added to fixed saturating β3 peptide, competition for anti-model protein antibody binding to coated αIIbβ3 (EC50 determination); settings: result in words
T1 sequence (P05106 742-788 limits assumed): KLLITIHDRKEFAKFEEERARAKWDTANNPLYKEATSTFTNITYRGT
Excerpt: Antibodies raised against a mimic of the present invention were used in an immunochemical assay to identify compounds that bind to the 3 cytoplasmic domain and induce a conformation change. In this assay, the binding of the αIIb and β3 cytoplasmic tails was first analyzed. […] Furthermore, as shown in this Table, point mutations or deletions that disrupted this heptapeptide sequence in the αIIb cytoplasmic domain also disrupted interaction with β3.
αIIbβ3 was purified by gel filtration in accordance with procedures described by Du et al. (Cell 65:409-416 (1991)) with omission of the heparin and Con A affinity chromatography steps. The final product was greater than 95% homogenous as judged by SDS PAGE. In the enzyme-linked immunosorbent assay (ELISA) the αIIbβ3 was used at a concentration of 5 μg/ml in a coating buffer containing 0.1 M NaHCO3 and 0.05% NaN3. Fifty ul/well was used to coat IMMULON II microtiter wells at 4° C. overnight. After removal of the coating solution, 150 Al blocking buffer (coating buffer containing 5% bovine serum albumin) was added. After an additional one hour incubation at 4° C., the blocking buffer was removed and the plates were washed three times with wash buffer (0.01 M Tris, 0.15 M NaCl, 0.01% thimerisol, 0.05% Tween 20, pH 8.0). Twenty-five microliters of the competitor was added to each well followed by 25 μl of a dilution of the anti-model protein antibody. Following mixing, the plate was covered for one hour at 37° C. and washed four times with wash buffer. To quantify bound antibody, 50 μl of horseradish peroxidase-conjugated goat anti-rabbit IgG (Biorad) was diluted to a concentration of 1/1000 in wash buffer containing 1 mg/ml bovine serum albumin. These plates were then incubated at 37° C. for 1.5 hours. After four washes, bound antibody was assayed by measuring peroxidase activity with O-phenylenediamine as a substrate and quantifying reaction product by its optical density at 490 nm. Data were expressed as B/B0 where B=A490 in the presence of competitor and B0=A490 in its absence. In some experiments, varying concentrations of αIIb peptides were added to a fixed, saturating, quantity of β3 peptide (20-50 nM). Competition was again expressed as B/BO, however, B0 was the A490 in the presence of the β3 peptide and no added αIIb peptide. EC50 was defined as the dose of αIIb resulting in B/B0=0.5.

talin [2] = target: T2, talin (Homo sapiens, UniProt Q9Y490); experiment: Affinity chromatography of cell lysates on cytoplasmic domain mimics, talin detected; assay type: binding; parameters: endogenous in cells; host or cells: human platelets (also Jurkat, HT1080, mouse C2C12 myotubes); settings: NHS-biotin-labeled human platelet lysates; result in words
Excerpt: To study possible influences of the structural changes induced by the Gly insertions, protein models were produced having the β1A cytoplasmic domain with one, two and three additional Gly residues inserted after the heptad-repeat motif (G2-, G3-, G4-β1A) and compared with the G1-β1A construct. As an additional control, a variant of the G4-β1A peptide was produced with a Tyr to Ala substitution in the membrane-proximal NPXY-motif (G4-β1A-Y788A) (FIG. 1). This mutation interferes with focal adhesion targeting and activation of integrins. The purified proteins were bound via their N=terminal His-Tag to a Ni^2+−resin and used in affinity chromatography experiments with lysates of NHS-biotin-labeled human platelets. Marked changes in the pattern of protein binding were observed as a consequence of the Gly insertions. Polypeptides migrating at 45, 56, 58, 140 and 240 kDa bound only to the mimics with Gly insertions. […] Using monoclonal antibodies, the 240 kDa and 45 kDa proteins were identified as filamin and actin, respectively. […] Talin bound to the G1- and G4-β1A construct but not to the Y788A-G4β1A construct. Thus, the structural changes in the model induced by the insertion of glycines into the coiled-coil motif and the integrin cytoplasmic domain sequence alter interactions of these proteins with cellular components. Alterations of the β1A tail that block cytoskeletal interactions, such as the Y788 mutation and β1B- and β1C-splice variants also abrogate binding to talin and filamin. Consequently, the observed in vitro interactions are likely to be biologically relevant.
Human platelets were obtained by centrifugation of freshly drawn blood samples at 1000 rpm for 20 minutes and sedimentation of the resulting platelet-rich plasma at 2600 rpm for 15 minutes. They were washed twice with 0.12 M NaCl, 0.0129 M trisodium citrate, 0.03 M glucose, pH 6.5, and once in Hepes-Saline (3.8 mM Hepes, 137 mM NaCl, 2.7 mM KCl, 5.6 mM D-Glucose, 3.3 mM Na2HPO4, pH 7.3-7.4). […]

[3] = target: T3, Full-length β3 peptide (β3 cytoplasmic tail) (UniProt P05106 742-788, limits assumed); experiment: competitive ELISA with β3 peptide and anti-model protein antibody on coated αIIbβ3
T3 construct: domain: cytoplasmic domain; also called wild-type β3
T3 peptide (looked up): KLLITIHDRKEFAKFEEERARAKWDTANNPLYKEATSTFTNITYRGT

filamin (ABP-280) = filamin (ABP-280) (Homo sapiens, UniProt P21333); experiment: Binding of resin-bound cytoplasmic domain model proteins to purified filamin; parameters: Human uterus filamin (ABP-280) was prepared as a 1.5 mg/ml solution; from tissue; host or cells: human uterus; settings: result in words
Description: (§1) Purified recombinant cytoplasmic domain proteins (500 μg) were dissolved in a mixture of 5 ml 20 mM Pipes, 50 mM NaCl, pH 6.8 and 1 ml 0.1 M sodium acetate, pH 3.5 and bound overnight to 80 μl of Ni^2+ saturated His-bind resin (Novagen). […] Resins were washed twice with 20 mM Pipes, 50 mM NaCl, pH 6.8, and stored at 4° C. with 0.1% sodium azide as suspensions with one volume of this buffer. Fifty microliters of such a suspension were added to 4.5 ml of cell lysates which had been diluted tenfold with buffer A containing 0.05% TRITON X-100, 3 mM MgCl2 and protease-inhibitors. After incubation overnight at 4° C., resins were washed five times with this buffer and finally heated in 50 μl of reducing sample buffer for SDS PAGE. Samples were separated on 4-20% SDS polyacrylamide gels (NOVEX) and either stained with Coomassie or transferred to Immobilon P membranes (Amersham Corp., Arlington Hts, Ill.). Membranes were blocked with TBS, 5% nonfat-mild powder and stained with streptavidin-peroxidase (VECTASTAIN) or specific antibodies. Bound peroxidase was detected with an enhanced chemiluminescence kit (Amersham).
Human uterus filamin (ABP-280) was prepared as a 1.5 mg/ml solution in 0.6 M KCl, 0.5 mM ATP, 0.5 mM DTT, 10 mM imidazole, pH 7.5. For binding assays performed as described in Example 5, this solution was diluted 1/12 with buffer A, 0.05% TRITON X-100, 3 mM MgCl2, 2 mg/ml BSA, protease-inhibitors (see Example 5), omitting the 50 mM NaCl (see Example 5), and resins with bound model proteins were added. Washing was performed in this buffer without BSA and with additional 50 mM KCl.
Talin was purified from human platelets in accordance with well known procedures with an additional purification step using chromatography on phosphocellulose and stored at 1 mg/ml in 10 mM NaCl, 50% glycerol. This solution was diluted to either 87 or 17 μg/ml talin with buffer A, 0.05% TRITON X-100, 3 mM MgCl2, 2 mg/ml BSA and protease inhibitors (see Example 5, including 0.1 mM E-64) and processed as indicated in the binding assays with cell lysates. […]

talin [4] = target: T2, talin; experiment: Binding of resin-bound cytoplasmic domain model proteins to purified talin; parameters: Talin was purified from human platelets in accordance with well known procedures; from tissue; host or cells: human platelets; settings: result in words
Description: as §1
Talin was purified from human platelets in accordance with well known procedures with an additional purification step using chromatography on phosphocellulose and stored at 1 mg/ml in 10 mM NaCl, 50% glycerol. […]

T2 sequence (Q9Y490 whole entry, the tested form may be a part): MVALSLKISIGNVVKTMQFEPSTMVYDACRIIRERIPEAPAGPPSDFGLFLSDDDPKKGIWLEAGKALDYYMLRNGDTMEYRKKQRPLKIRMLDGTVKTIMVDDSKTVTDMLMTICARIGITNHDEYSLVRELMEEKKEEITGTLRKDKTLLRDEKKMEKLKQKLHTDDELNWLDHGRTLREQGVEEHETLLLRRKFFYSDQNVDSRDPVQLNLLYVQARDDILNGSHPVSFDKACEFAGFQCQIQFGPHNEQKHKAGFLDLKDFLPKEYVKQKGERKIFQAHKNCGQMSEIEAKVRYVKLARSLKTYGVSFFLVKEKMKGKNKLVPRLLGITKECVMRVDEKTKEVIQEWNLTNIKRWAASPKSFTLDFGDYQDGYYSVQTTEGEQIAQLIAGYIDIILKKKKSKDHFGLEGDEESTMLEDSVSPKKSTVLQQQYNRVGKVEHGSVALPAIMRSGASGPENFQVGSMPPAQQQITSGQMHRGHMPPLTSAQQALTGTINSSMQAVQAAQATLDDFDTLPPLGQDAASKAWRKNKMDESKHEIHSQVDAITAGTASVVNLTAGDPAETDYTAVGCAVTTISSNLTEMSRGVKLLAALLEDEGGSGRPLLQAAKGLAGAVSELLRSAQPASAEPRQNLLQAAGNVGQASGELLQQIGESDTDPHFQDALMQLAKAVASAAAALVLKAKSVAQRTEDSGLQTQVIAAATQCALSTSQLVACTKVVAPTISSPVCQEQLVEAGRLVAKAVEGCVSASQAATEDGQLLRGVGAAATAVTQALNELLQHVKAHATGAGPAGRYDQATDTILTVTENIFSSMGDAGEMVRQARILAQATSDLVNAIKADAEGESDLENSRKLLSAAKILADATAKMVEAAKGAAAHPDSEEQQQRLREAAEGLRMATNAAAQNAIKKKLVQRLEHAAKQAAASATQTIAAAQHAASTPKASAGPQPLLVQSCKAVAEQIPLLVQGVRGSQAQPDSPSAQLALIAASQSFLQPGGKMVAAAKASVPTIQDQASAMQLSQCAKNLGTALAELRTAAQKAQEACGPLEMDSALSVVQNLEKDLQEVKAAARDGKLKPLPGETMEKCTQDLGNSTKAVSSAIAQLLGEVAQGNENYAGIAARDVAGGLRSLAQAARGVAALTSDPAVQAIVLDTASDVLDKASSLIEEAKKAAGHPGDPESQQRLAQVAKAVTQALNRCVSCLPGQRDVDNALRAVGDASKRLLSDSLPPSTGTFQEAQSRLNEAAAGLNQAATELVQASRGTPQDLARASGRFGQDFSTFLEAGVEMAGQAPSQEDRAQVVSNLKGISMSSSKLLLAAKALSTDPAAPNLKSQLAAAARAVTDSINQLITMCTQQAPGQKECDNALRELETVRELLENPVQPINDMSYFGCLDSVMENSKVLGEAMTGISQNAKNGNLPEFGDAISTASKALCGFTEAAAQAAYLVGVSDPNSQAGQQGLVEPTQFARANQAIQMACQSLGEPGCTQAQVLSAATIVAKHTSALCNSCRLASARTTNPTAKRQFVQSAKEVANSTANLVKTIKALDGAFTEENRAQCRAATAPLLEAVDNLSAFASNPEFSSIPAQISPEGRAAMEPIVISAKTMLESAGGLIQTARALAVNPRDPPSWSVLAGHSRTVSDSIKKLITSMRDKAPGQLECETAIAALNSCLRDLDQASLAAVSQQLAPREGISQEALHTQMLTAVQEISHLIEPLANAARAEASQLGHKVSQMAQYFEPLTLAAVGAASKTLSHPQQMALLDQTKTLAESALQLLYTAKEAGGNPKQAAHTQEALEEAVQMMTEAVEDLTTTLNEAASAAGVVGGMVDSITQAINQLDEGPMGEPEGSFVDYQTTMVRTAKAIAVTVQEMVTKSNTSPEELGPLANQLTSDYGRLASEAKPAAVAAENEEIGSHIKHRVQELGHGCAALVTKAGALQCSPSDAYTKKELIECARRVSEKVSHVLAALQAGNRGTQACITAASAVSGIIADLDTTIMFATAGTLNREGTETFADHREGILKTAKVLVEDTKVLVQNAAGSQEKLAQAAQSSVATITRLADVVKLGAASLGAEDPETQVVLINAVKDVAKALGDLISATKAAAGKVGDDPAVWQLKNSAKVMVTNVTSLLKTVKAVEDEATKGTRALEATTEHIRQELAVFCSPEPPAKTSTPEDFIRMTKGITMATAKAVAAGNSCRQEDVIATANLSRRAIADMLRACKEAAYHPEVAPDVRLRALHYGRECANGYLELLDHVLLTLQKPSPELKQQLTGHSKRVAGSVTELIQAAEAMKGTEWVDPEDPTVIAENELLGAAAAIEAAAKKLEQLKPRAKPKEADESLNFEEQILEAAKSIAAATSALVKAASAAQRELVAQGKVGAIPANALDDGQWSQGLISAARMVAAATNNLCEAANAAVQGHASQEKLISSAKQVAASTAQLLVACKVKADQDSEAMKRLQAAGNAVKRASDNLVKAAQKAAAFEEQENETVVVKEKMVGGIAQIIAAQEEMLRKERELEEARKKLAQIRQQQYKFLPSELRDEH
filamin (ABP-280), sequence (P21333 whole entry, the tested form may be a part): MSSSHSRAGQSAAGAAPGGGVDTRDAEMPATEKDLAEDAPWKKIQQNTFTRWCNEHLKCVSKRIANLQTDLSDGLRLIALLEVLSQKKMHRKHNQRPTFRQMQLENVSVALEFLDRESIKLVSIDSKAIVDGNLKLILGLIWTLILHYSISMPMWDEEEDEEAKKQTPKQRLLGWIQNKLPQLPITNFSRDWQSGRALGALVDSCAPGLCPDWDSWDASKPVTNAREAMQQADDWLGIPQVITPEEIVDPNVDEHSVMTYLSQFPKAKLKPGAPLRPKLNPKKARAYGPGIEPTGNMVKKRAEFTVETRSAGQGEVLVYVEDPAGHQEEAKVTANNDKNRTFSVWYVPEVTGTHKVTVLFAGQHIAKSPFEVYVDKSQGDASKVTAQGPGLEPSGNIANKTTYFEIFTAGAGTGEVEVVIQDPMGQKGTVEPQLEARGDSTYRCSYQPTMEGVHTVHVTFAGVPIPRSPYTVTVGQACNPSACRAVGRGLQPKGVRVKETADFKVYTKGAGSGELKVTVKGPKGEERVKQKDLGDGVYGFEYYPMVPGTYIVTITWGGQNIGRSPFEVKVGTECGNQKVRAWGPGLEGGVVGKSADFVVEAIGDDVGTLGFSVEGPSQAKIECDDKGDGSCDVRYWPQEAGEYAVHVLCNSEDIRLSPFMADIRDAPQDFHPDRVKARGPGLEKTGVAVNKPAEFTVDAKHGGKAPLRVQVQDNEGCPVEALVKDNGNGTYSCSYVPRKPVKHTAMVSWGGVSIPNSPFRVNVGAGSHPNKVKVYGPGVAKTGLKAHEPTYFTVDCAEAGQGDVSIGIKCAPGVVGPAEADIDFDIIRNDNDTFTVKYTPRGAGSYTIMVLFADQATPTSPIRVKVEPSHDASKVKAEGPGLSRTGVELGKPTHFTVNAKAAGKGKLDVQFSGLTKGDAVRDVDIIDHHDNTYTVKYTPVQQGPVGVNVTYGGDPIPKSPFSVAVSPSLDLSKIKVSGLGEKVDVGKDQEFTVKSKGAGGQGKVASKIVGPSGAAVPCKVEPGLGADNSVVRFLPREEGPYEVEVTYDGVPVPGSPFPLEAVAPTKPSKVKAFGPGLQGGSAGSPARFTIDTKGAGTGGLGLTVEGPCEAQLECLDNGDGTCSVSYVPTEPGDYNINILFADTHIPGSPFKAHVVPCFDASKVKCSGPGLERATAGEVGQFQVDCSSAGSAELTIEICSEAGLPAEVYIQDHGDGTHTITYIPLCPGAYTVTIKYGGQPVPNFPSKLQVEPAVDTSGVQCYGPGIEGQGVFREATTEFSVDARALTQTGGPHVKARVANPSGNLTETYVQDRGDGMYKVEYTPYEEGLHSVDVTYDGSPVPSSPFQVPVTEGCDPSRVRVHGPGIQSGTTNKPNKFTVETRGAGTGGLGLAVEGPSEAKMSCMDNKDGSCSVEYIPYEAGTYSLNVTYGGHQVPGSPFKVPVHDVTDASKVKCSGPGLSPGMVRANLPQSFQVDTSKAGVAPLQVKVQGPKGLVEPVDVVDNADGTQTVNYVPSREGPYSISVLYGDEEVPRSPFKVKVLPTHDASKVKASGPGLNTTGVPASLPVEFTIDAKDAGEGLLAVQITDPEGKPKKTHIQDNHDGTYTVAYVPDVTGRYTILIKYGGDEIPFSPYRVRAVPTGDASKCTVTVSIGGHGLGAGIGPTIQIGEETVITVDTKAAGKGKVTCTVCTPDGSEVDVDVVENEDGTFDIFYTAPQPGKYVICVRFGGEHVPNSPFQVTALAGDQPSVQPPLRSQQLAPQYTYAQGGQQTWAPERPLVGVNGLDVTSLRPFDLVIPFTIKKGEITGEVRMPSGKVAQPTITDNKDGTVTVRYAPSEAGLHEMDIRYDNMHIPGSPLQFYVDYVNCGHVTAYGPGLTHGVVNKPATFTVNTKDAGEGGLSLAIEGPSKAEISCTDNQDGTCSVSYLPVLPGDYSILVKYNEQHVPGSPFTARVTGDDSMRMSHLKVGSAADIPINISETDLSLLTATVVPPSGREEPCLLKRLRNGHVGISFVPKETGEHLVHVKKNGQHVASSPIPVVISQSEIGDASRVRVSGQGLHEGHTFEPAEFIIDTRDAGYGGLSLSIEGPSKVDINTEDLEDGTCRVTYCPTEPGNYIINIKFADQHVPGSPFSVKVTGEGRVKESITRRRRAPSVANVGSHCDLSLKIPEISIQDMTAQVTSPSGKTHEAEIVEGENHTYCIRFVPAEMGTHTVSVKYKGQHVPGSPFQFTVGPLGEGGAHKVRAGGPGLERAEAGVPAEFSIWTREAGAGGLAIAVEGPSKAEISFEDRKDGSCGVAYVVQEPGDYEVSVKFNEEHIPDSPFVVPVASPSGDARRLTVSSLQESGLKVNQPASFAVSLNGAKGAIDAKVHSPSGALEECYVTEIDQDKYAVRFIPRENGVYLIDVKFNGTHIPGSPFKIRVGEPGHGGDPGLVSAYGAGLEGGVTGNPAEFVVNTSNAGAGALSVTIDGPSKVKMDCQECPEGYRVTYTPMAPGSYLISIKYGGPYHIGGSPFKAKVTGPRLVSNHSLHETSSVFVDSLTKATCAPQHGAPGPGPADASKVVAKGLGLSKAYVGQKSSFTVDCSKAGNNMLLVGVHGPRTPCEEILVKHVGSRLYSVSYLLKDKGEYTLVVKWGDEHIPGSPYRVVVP

full-length β3 peptide: full-length linear peptide of the β3 cytoplasmic domain (KLLITIHDRKEFAKFEEERARAKWDTANNPLYKEATSTFTNITYRGT)
inhibition of antibody reactivity with platelet αIIbβ3 (platelet αIIbβ3): only partially inhibited

full-length αIIb peptide: full-length linear peptide of the αIIb cytoplasmic domain (KVGFFKRNRPPLEEDDEEGE)
interaction with β3 cytoplasmic tail (induces conformation change seen by antibody) [1]: apparent affinity of the interaction was high
inhibition of antibody reactivity with platelet αIIbβ3 (platelet αIIbβ3): not inhibited

β3 (Y747A) mutant: mutant of the β3 cytoplasmic domain, Y747A (KLLITIHDRKEFAKFEEERARAKWDTANNPLAKEATSTFTNITYRGT)
inhibition of antibody reactivity with platelet αIIbβ3 (platelet αIIbβ3): completely inhibited

B1: G1-β1A: His-tag, four heptad repeats, one glycine, β1A integrin cytoplasmic domain (protein)
chain: GSSHHHHHHSSGLVPRGSHMCGKLEALEGRLDALEGKLEALEGKLDALEGKLLMIIHDRREFAKFEKEKMNAKWDTGENPIYKSAVTTVVNPKYEGK
talin binding from cell lysates (talin [2]): bound

B2: Cytoplasmic domain of integrin α5 (peptide, UniProt P08648 1022-1049, looked up)
peptide: KLGFFKRSLPYGTAMEKAQLKPPATSDA
notes: domain: cytoplasmic domain
binding result [3]: no binding

B3: G4-β1A: β1A construct with three additional glycines between heptad repeats and cytoplasmic domain (protein)
chain: GSSHHHHHHSSGLVPRGSHMKLEALEGRLDALEGKLEALEGKLDALEGGGGKLLMIIHDRREFAKFEKEKMNAKWDTGENPIYKSAVTTVVNPKYEGK
talin binding from cell lysates (talin [2]): bound

B4: Cytoplasmic domain of integrin α4 (peptide, UniProt P13612 1001-1032, looked up)
peptide: KAGFFKRQYKSILQEENRRDSWSYINSKSNDD
notes: domain: cytoplasmic domain
binding result [3]: no binding

B5: G4-β1B: G4 model protein with β1B splice variant cytoplasmic domain (protein)
chain: GSSHHHHHHSSGLVPRGSHMKLEALEGRLDALEGKLEALEGKLDALEGGGGKLLMIIHDRREFAKFEKEKMNAKWDTVSYKTSKKQSGL
binding of purified filamin, comparison between constructs (filamin (ABP-280)): functionally reduced
binding of purified talin compared to G4-β1A (talin [4]): functionally reduced
